Measured values published in patent US20040063913A1 (Novartis, published 2004).
“And” between values parts separate entries of the source, which are not always exact repeats. Equal entries are not always repeated.

T1: Rec Human IL-1α (human, UniProt P01583 113-271)
T1 construct: also called human IL-1alpha
T1 sequence (looked up): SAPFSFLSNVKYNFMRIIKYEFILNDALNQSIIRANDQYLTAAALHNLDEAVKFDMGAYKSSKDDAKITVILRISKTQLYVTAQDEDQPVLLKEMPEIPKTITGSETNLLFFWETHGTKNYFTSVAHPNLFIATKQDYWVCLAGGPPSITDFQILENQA

B1: recombinant human soluble IL-1 type I receptor (receptor, UniProt P14778 18-332, looked up)
chain: LEADKCKEREEKIILVSSANEIDVRPCPLNPNEHKGTITWYKDDSKTPVSTEQASRIHQHKEKLWFVPAKVEDSGHYYCVVRNSSYCLRIKISAKFVENEPNLCYNAQAIFKQKLPVAGDGGLVCPYMEFFKNENNELPKLQWYKDCKPLLLDNIHFSGVKDRLIVMNVAEKHRGNYTCHASYTYLGKQYPITRVIEFITLEENKPTRPVIVSPANETMEVDLGSQIQLICNVTGQLSDIAYWKWNGSVIDEDDPVLGEDYYSVENPANKRRSTLITVLNISEIESRFYKHPFTCFAKNTHGIDAAYIQLIYPVT
notes: Called soluble; also called soluble human IL-1 type I receptor; recombinant human soluble receptor I
B2: ACZ 885 antibody (antibody, human IgG1, V domains shown)
VH: QVQLVESGGGVVQPGRSLRLSCAASGFTFSVYGMNWVRQAPGKGLEWVAIIWYDGDNQYYADSVKGRFTISRDNSKNTLYLQMNGLRAEDTAVYYCARDLRTGPFDYWGQGTLVTVSS
VL: EIVLTQSPDFQSVTPKEKVTITCRASQSIGSSLHWYQQKPDQSPKLLIKYASQSFSGVPSRFSGSGSGTDFTLTINSLEAEDAAAYYCHQSSSLPFTFGPGTKVDIK
notes: also called NVP-ACZ885

Assays:
recombinant human IL-1β = molecular target: T2, recombinant human IL-1β (human, UniProt P01584 117-269); assay: Biacore competition: ACZ885 immobilized on the chip, recombinant human IL-1β (1 nM) injected with increasing soluble IL-1 receptor type I (0-12 nM); % binding of IL-1β to ACZ885; mean ± SEM, n=4
T2 construct: mature; also called Rec Human IL-1β; recombinant human IL-1beta
Description: Half-maximum values (IC₅₀) were determined graphically using the Origin 6.0 software The mean±SEM is given (n=4).

[1] = molecular target: naturally produced IL-1β in conditioned medium from peripheral blood mononuclear cells (human, UniProt P01584 117-269, limits assumed); assay: cell-based or functional assay
[2] = molecular target: T3, IL-1β derived from rhesus monkeys (rhesus monkey, UniProt P48090 117-269); assay: not named
T3 construct: also called rhesus IL-1β

Rec Cynomolgus IL-1β = molecular target: T4, Rec Cynomolgus IL-1β (cynomolgus, UniProt P79182 117-268); assay: Biacore, ACZ885 immobilized
T4 construct: also called Rec Cynomolgus IL-β; cynomolgous IL-1beta

Rec Human IL-1α = molecular target: T1, Rec Human IL-1α; assay: Biacore, ACZ885 immobilized

Binder | IC50 (recombinant human IL-1β) [pM] | IC50, inhibition of IL-1β-induced IL-6 secretion from human dermal fibroblasts, cond. medium (NVP-ACZ885 Batch1) [1] | IC50, inhibition of IL-1β-induced IL-6 secretion from human dermal fibroblasts, cond. medium (NVP-ACZ885 Batch2) [1] [ng/mL] | binding result [2] | binding result (Rec Cynomolgus IL-1β) | binding result (Rec Human IL-1α)
B1 | 680 | – | – | – | – | –
B2 | – | 54 pM and 9.1 ng/ml | 7.4 | no binding | no binding (tested: 8 nM) | no binding (tested: 8 nM)
